Data reported in publication PMC10786891, “Massively parallel profiling of RNA-targeting CRISPR-Cas13d”.
Numbering of substitutions follows the chain as printed. In names and notes the source's numbering stands.

Target: T1, EsCas13d, nuclease-dead (Eubacterium siraeum, UniProt B0MS50, R295A;H300A;R849A;H854A)
T1 sequence: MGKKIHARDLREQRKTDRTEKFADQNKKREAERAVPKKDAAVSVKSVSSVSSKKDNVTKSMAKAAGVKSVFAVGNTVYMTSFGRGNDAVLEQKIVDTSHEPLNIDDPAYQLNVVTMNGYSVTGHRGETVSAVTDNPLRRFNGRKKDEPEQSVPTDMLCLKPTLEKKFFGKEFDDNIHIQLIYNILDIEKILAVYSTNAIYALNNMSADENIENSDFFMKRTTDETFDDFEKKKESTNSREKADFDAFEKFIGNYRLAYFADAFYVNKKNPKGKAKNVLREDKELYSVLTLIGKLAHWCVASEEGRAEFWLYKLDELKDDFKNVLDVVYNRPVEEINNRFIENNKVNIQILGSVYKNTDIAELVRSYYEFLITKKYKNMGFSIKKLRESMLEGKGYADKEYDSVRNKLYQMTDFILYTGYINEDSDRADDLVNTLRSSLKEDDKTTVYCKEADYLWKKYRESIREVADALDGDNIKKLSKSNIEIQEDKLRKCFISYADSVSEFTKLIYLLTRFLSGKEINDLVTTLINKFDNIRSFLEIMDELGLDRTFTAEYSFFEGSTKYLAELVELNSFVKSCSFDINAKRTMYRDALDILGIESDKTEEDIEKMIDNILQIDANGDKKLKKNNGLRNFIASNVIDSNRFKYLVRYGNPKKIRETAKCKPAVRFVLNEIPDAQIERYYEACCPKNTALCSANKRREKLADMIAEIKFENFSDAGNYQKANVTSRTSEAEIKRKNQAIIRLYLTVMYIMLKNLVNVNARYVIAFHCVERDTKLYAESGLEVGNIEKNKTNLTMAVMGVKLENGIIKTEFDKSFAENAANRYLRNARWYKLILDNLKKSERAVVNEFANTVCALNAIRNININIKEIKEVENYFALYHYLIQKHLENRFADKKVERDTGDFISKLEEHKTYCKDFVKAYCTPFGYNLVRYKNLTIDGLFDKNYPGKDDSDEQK
Experiment: crRNA (strand 1, pre-loaded); Mg2+; 40 mM Tris-HCl pH 7.5, 150 mM NaCl, 6 mM MgCl2, 1 mM DTT, 0.1% Tween-20, 0.2 mg/ml BSA; 25 C; 10 min per concentration, then washed
Conditions: tags: His6-TwinStrep-SUMO cleaved; N-terminal SNAP kept (SNAP-Surface 488); label: 3' end held by stalled T7 RNA polymerase

B1: target 1 C7A,A16G (mixed)
RNA 1: CACCCGUGCAAAAAUGCAGGGGUCUAAAACUGAGCGGAUAACCUCUCUAUGG
RNA 2: GGGAAUGGAUCCACAUCUACGAAUUCGUACCAUAGGGAGGUUAUACGCUCACCGAGAUCGGAAGAGCACACGU
  Kd: 30 ± 1.9 nM

B2: target 1 insG 3' of 7,insG 3' of 2 (mixed)
RNA 1: B1 RNA 1
RNA 2: GGGAAUGGAUCCACAUCUACGAAUUCGUACCAUAGAGAGGUUAUCGCGCUCGACCGAGAUCGGAAGAGCACACGU
  Kd: 6.9 ± 0.4 nM

B3: target 1 A20C,C22U (mixed)
RNA 1: B1 RNA 1
RNA 2: B1 RNA 2 with C30U, A32C, G36A, A45C
  Kd: 49 ± 6 nM

B4: target 2 MT 5'PFS GUG 3'PFS CUC (mixed)
RNA 1: CACCCGUGCAAAAUUGCAGGGGUCUAAAACCUUCUCCAAAUUGUUUCAUCCU
RNA 2: GGGAAUGGAUCCACAUCUACGAAUUCGUGAGGAUGAAACAAUUUGGAGAAGCUCAGAUCGGAAGAGCACACGU
  Kd: 21.4 ± 2 nM

B5: target 2 MT 5'PFS GUG 3'PFS CUA (mixed)
RNA 1: B4 RNA 1
RNA 2: B4 RNA 2 with C54A
  Kd: 8.5 ± 0.7 nM

B6: target 2 MT 5'PFS CAC 3'PFS UCA (mixed)
RNA 1: B4 RNA 1
RNA 2: B4 RNA 2 with G27C, U28A, G29C, C52U, U53C, C54A
  Kd: 4.1 ± 0.6 nM

B7: target 2 MT 5'PFS UAG 3'PFS UUU (mixed)
RNA 1: B4 RNA 1
RNA 2: B4 RNA 2 with G27U, U28A, C52U, C54U
  Kd: 6.5 ± 0.7 nM

B8: target 2 MT 5'PFS UGG 3'PFS CCA (mixed)
RNA 1: B4 RNA 1
RNA 2: B4 RNA 2 with G27U, U28G, U53C, C54A
  Kd: 15.3 ± 3.1 nM

B9: target 2 MT 5'PFS CGC 3'PFS UAU (mixed)
RNA 1: B4 RNA 1
RNA 2: B4 RNA 2 with G27C, U28G, G29C, C52U, U53A, C54U
  Kd: 3.7 ± 0.4 nM

B10: target 2 MT 5'PFS AGG 3'PFS AAC (mixed)
RNA 1: B4 RNA 1
RNA 2: B4 RNA 2 with G27A, U28G, C52A, U53A
  Kd: 8.5 ± 1.7 nM

B11: target 2 MT 5'PFS GUA 3'PFS AGC (mixed)
RNA 1: B4 RNA 1
RNA 2: B4 RNA 2 with G29A, C52A, U53G
  Kd: 6.4 ± 0.6 nM

B12: target 2 MT 5'PFS GUG 3'PFS CUG (mixed)
RNA 1: B4 RNA 1
RNA 2: B4 RNA 2 with C54G
  Kd: 10.1 ± 0.7 nM

B13: target 2 MT 5'PFS GUA 3'PFS AGG (mixed)
RNA 1: B4 RNA 1
RNA 2: B4 RNA 2 with G29A, C52A, U53G, C54G
  Kd: 8.6 ± 0.6 nM

B14: target 2 MT 5'PFS AGG 3'PFS UAC (mixed)
RNA 1: B4 RNA 1
RNA 2: B4 RNA 2 with G27A, U28G, C52U, U53A
  Kd: 7.3 ± 1.2 nM

B15: target 2 MT 5'PFS UCA 3'PFS AAG (mixed)
RNA 1: B4 RNA 1
RNA 2: B4 RNA 2 with G27U, U28C, G29A, C52A, U53A, C54G
  Kd: 6.7 ± 1 nM

B16: target 2 MT 5'PFS CUC 3'PFS ACA (mixed)
RNA 1: B4 RNA 1
RNA 2: B4 RNA 2 with G27C, G29C, C52A, U53C, C54A
  Kd: 3.1 ± 1.4 nM

B17: target 2 MT 5'PFS UCA 3'PFS AAC (mixed)
RNA 1: B4 RNA 1
RNA 2: B4 RNA 2 with G27U, U28C, G29A, C52A, U53A
  Kd: 7.5 ± 1.1 nM

B18: target 2 MT 5'PFS CUC 3'PFS ACC (mixed)
RNA 1: B4 RNA 1
RNA 2: B4 RNA 2 with G27C, G29C, C52A, U53C
  Kd: 2.3 ± 0.4 nM

B19: target 2 MT 5'PFS GCU 3'PFS CUC (mixed)
RNA 1: B4 RNA 1
RNA 2: B4 RNA 2 with U28C, G29U
  Kd: 24 ± 8 nM

B20: target 2 MT 5'PFS UCA 3'PFS AAA (mixed)
RNA 1: B4 RNA 1
RNA 2: B4 RNA 2 with G27U, U28C, G29A, C52A, U53A, C54A
  Kd: 4.2 ± 0.9 nM

B21: target 2 MT 5'PFS GGU 3'PFS AAU (mixed)
RNA 1: B4 RNA 1
RNA 2: B4 RNA 2 with U28G, G29U, C52A, U53A, C54U
  Kd: 12.4 ± 2.2 nM

B22: target 2 MT 5'PFS UCU 3'PFS CAA (mixed)
RNA 1: B4 RNA 1
RNA 2: B4 RNA 2 with G27U, U28C, G29U, U53A, C54A
  Kd: 10.5 ± 2.1 nM

B23: target 2 MT 5'PFS CGG 3'PFS AGA (mixed)
RNA 1: B4 RNA 1
RNA 2: B4 RNA 2 with G27C, U28G, C52A, U53G, C54A
  Kd: 4.1 ± 0.7 nM

B24: target 2 MT 5'PFS CAC 3'PFS UCC (mixed)
RNA 1: B4 RNA 1
RNA 2: B4 RNA 2 with G27C, U28A, G29C, C52U, U53C
  Kd: 4.9 ± 0.7 nM

B25: target 2 MT 5'PFS UCA 3'PFS AAU (mixed)
RNA 1: B4 RNA 1
RNA 2: B4 RNA 2 with G27U, U28C, G29A, C52A, U53A, C54U
  Kd: 5.2 ± 0.7 nM

B26: target 2 MT 5'PFS UAG 3'PFS UCG (mixed)
RNA 1: B4 RNA 1
RNA 2: B4 RNA 2 with G27U, U28A, C52U, U53C, C54G
  Kd: 4.1 ± 0.5 nM

B27: target 2 MT 5'PFS UCU 3'PFS CAG (mixed)
RNA 1: B4 RNA 1
RNA 2: B4 RNA 2 with G27U, U28C, G29U, U53A, C54G
  Kd: 7.6 ± 1.1 nM

B28: target 2 MT 5'PFS AGG 3'PFS AAU (mixed)
RNA 1: B4 RNA 1
RNA 2: B4 RNA 2 with G27A, U28G, C52A, U53A, C54U
  Kd: 4.7 ± 0.9 nM

B29: target 2 MT 5'PFS CAC 3'PFS UCU (mixed)
RNA 1: B4 RNA 1
RNA 2: B4 RNA 2 with G27C, U28A, G29C, C52U, U53C, C54U
  Kd: 4.7 ± 0.6 nM

B30: target 2 MT 5'PFS CGG 3'PFS AGG (mixed)
RNA 1: B4 RNA 1
RNA 2: B4 RNA 2 with G27C, U28G, C52A, U53G, C54G
  Kd: 4.5 ± 0.5 nM

B31: target 2 MT 5'PFS GGU 3'PFS AAG (mixed)
RNA 1: B4 RNA 1
RNA 2: B4 RNA 2 with U28G, G29U, C52A, U53A, C54G
  Kd: 12.7 ± 1.2 nM

B32: target 2 MT 5'PFS GGU 3'PFS AAC (mixed)
RNA 1: B4 RNA 1
RNA 2: B4 RNA 2 with U28G, G29U, C52A, U53A
  Kd: 13.4 ± 1.4 nM

B33: target 2 MT 5'PFS GUG 3'PFS CUU (mixed)
RNA 1: B4 RNA 1
RNA 2: B4 RNA 2 with C54U
  Kd: 12.8 ± 1 nM

B34: target 2 MT 5'PFS CUC 3'PFS ACG (mixed)
RNA 1: B4 RNA 1
RNA 2: B4 RNA 2 with G27C, G29C, C52A, U53C, C54G
  Kd: 1.68 ± 0.18 nM

B35: target 2 MT 5'PFS GGU 3'PFS AAA (mixed)
RNA 1: B4 RNA 1
RNA 2: B4 RNA 2 with U28G, G29U, C52A, U53A, C54A
  Kd: 7.1 ± 1 nM

B36: target 2 MT 5'PFS CAC 3'PFS UCG (mixed)
RNA 1: B4 RNA 1
RNA 2: B4 RNA 2 with G27C, U28A, G29C, C52U, U53C, C54G
  Kd: 3.9 ± 0.8 nM

B37: target 2 MT 5'PFS CGG 3'PFS AGC (mixed)
RNA 1: B4 RNA 1
RNA 2: B4 RNA 2 with G27C, U28G, C52A, U53G
  Kd: 4.7 ± 0.9 nM

B38: target 2 MT 5'PFS UGG 3'PFS CCU (mixed)
RNA 1: B4 RNA 1
RNA 2: B4 RNA 2 with G27U, U28G, U53C, C54U
  Kd: 68 ± 33 nM
